According to publication doi:10.1101/192500 (bioRxiv, 2018):
Substitutions are numbered along the chain they refer to. Names and notes keep the numbering of the source.

B1: OmpC (wild type, in the purified OmpC-MlaA-His complex) (natural protein, E. coli)
chain: AEVYNKDGNKLDLYGKVDGLHYFSDNKDVDGDQTYMRLGFKGETQVTDQLTGYGQWEYQIQGNSAENENNSWTRVAFAGLKFQDVGSFDYGRNYGVVYDVTSWTDVLPEFGGDTYGSDNFMQQRGNGFATYRNTDFFGLVDGLNFAVQYQGKNGNPSGEGFTSGVTNNGRDALRQNGDGVGGSITYDYEGFGIGGAISSSKRTDAQNTAAYIGNGDRAETYTGGLKYDANNIYLAAQYTQTYNATRVGSLGWANKAQNFEAVAQYQFDFGLRPSLAYLQSKGKNLGRGYDDEDILKYVDVGATYYFNKNMSTYVDYKINLLDDNQFTRDAGINTDNIVALGLVYQF
B2: MlaA_(D61-K124) peptide (domain or fragment, E. coli, UniProt P76506 61-124, looked up)
chain: DYVPQPARNGLSNFTGNLEEPAVMVNYFLQGDPYQGMVHFTRFFLNTILGMGGFIDVAGMANPK
B3: OmpC_(G19W) (natural protein, E. coli, UniProt P06996 22-367, looked up)
chain: B1 chain with G19W
B4: OmpC_(R92L) (natural protein, E. coli, UniProt P06996 22-367, looked up)
chain: B1 chain with R92L
B5: OmpCG19W/R92L (natural protein, E. coli, UniProt P06996 22-367, looked up)
chain: B1 chain with G19W, R92L
B6: OmpC_(R92A) (natural protein, E. coli, UniProt P06996 22-367, looked up)
chain: B1 chain with R92A

Assays:
[1] = molecular target: MlaA-His (from dmlaA-His plasmids, in purified OmpC-MlaA-His complexes) (E. coli) (UniProt P76506); experiment: SEC-MALS
Chain of MlaA-His (from dmlaA-His plasmids, in purified OmpC-MlaA-His complexes) (E. coli) (P76506 18-251, one chain of several): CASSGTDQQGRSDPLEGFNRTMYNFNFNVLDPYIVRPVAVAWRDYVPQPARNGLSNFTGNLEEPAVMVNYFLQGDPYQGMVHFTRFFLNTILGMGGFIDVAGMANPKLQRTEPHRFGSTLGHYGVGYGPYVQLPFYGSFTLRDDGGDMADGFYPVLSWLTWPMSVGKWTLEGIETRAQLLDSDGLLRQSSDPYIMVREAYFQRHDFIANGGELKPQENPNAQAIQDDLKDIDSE

[2] = molecular target: the molecule itself; experiment: SEC-MALS
[3] = molecular target: B1; experiment: SEC
[4] = molecular target: the molecule itself; experiment: temperature titration with SDS-PAGE

Row | Binder | binding result [4] | further results
1 | B1 | – | stoichiometry N (MlaA per OmpC trimer) [1]: 1; stoichiometry N [2]: 3
2 | B2 | – | binding result [3]: binds
3 | B3 | binds | –
4 | B4 | binds | –
5 | B5 | binds | –
6 | B6 | binds | –
